Reference: paper PMC5755580

Legend:
[1] = target: VvPrx3 (C73S) (Vibrio vulnificus); experiment: SDS-PAGE under nonreducing or reducing conditions (intermolecular disulfide bond); reduced VvPrx3 (C73S) reacted with various concentrations of H2O2 or t-BOOH for 30 min at 298 K in 20 mM Tris-HCl pH 8.0, 150 mM NaCl; stopped with iodoacetamide; boiled with or without 10 mM DTT
[2] = target: VvPrx3 (C73S) (Vibrio vulnificus); experiment: SDS-PAGE under nonreducing conditions (intermolecular disulfide bond), time course; VvPrx3 (C73S) 70 µM reacted with 50 µM H2O2 for 0-60 s; quenched with 10 mM N-ethylmaleimide; band density by ImageJ

For VvPrx3 (C73S) (enzyme), which stoichiometry N [1] is on record?
Its stoichiometry N is 2.

And the protein linked by a disulfide bond at 30 s (70 µM protein, 50 µM H2O2) [2]?
The protein linked by a disulfide bond at 30 s (70 µM protein, 50 µM H2O2) was 30 µM.
